Measured values published in article PMC4705653.

Experiments:
[1] = molecular target: GST-Mcm10 (budding yeast) (UniProt P32354); experiment: pull-down; 30 pmol GST-tagged protein on Glutathione Sepharose, varying concentrations of 32P-labelled PKA-tagged protein in solution; GST binding buffer (40 mM Tris–HCl pH 7.5, 100 mM NaCl, 0.1 mM EDTA, 10% glycerol, 0.1% Triton X-100, 1 mM DTT, 0.1 mg/ml BSA), 100 μl, 30°C, 10 min; SDS-PAGE and phosphorimaging; in some panels with 5 mM ATP or ATPγS, or with a third labelled protein (Mcm10, Sld3) added
GST-Mcm10 (budding yeast), sequence (P32354 whole entry): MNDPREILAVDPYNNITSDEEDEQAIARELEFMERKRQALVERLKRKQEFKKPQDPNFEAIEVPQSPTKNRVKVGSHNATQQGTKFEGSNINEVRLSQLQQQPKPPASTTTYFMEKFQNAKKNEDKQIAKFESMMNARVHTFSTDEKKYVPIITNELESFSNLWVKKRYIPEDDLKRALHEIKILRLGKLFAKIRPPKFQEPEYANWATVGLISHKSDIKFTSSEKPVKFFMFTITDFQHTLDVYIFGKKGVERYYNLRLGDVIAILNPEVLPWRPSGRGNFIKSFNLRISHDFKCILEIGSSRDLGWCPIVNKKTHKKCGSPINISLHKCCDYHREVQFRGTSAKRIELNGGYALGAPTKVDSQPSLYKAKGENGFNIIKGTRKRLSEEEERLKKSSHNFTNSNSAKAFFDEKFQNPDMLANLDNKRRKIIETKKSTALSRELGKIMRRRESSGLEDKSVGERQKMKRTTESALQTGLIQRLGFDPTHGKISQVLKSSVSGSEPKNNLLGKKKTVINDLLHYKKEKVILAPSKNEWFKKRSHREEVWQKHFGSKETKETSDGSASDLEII

Sld3 = Sld3 (UniProt P53135); experiment: anti-Mcm2 co-IP, Sld3 blot; conditions: reference: wild-type mcm2; sites S164,S170

signal relative to GST alone [1]	binding against the reference (Sld3)	Substance
> 10 times		PKA-Mcm2–7 complex (radiolabeled, wild type), P29469 1-868; P24279 1-971; P30665 1-933; P29496 1-775; P53091 1-1017; P38132 1-845
	lost	Mcm2 (from UniProt P29469) mcm2-2A (S164A S170A)
